Measured values from patent publication US20230158180A1 (SLOAN KETTERING INSTITUTE FOR CANCER RESEARCH, published 2023).
Values belong to the molecule of their own block, whether it stands above or below them. Non-standard residues stand in square brackets, D forms with d. Groups on a side chain read outwards from the residue. *: point of attachment. Cy5 silica nanoparticle = Cy5 dye-containing core-shell silica nanoparticle (~7 nm); PEG = not defined here; 124I = [124I]*

Columns and labels:
[1] = target: melanocortin-1 receptor (MC1R) on murine B16/F1 and B16F10 melanoma cells (mouse) (UniProt Q01727); experiment: competitive binding against ^125I-NDP, cultured B16/F1 melanoma cells
[2] = target: melanocortin-1 receptor (MC1R) on murine B16/F1 and B16F10 melanoma cells (mouse) (UniProt Q01727); experiment: flow cytometry dose response, B16F10 melanoma cells
[3] = target: melanocortin-1 receptor (MC1R) on human M21 melanoma cells (human) (UniProt Q01726); experiment: flow cytometry dose response, M21 melanoma cells
[4] = target: melanocortin-1 receptor (MC1R) on murine B16/F1 and B16F10 melanoma cells (mouse) (UniProt Q01727); experiment: same type of competitive binding assay (given for reference)
[5] = target: T1, αvβ3 integrin receptor (human, on M21 melanoma cells and HUVEC cells) (human, UniProt P06756 31-1048; P05106 27-788); experiment: competitive binding, gamma counting, M21 cells
T1 construct: whole, on cells; also called integrin αvβ3 receptor
Method: Nonspecific binding was determined in the presence of a 1000-fold excess of cRGD (Peptides International, Louisville, Ky.). Scatchard plots of the binding data were generated and analyzed using linear regression analyses (Microsoft Excel 2007) to derive receptor-binding parameters (Kd, Bmax, IC50).
To examine in vitro binding affinity and specificity of ¹²⁴I-cRGDY-PEG-dots and ¹²⁴I-PEGdots to tumor and vascular endothelial surfaces, αᵥβ₃ integrin-overexpressing (M21) and nonexpressing (M21L) melanoma and human umbilical vein endothelial (HUVECs) cell lines were used. Highly specific linear and saturable binding of the cRGDY-PEG-dots was observed over a range of particle concentrations (0 to 8 ng/ml) and incubation times (up to 5-hrs), with maximum differential binding at 4-hr and ˜2.0 ng/ml particle concentration (data not shown) using flow cytometry. Receptor-binding specificity of ¹²⁴I-cRGDY-PEG dots was tested using γ-counting methods after initially incubating M21 cells with excess non-radiolabeled cRGD and then adding various concentrations of the radiolabeled targeted probe (FIG. 8A). […] Based on the Bmax value, the αᵥβ₃ integrin receptor density was estimated to be […] per M21 cell, in reasonable agreement with the previously published estimate of 5.6×10⁴ for this cell line. Cressman, et al., Binding and uptake of RGD-containing ligands to cellular αᵥβ₃ integrins. […]

[6] = target: T1, αvβ3 integrin receptor (human, on M21 …); experiment: Scatchard analysis, gamma counting, M21 cells
Method: To assay particle binding and specificity for M21 cells, 24-well plates were coated with 10 μg/ml collagen type I (BD Biosciences, Bedford, Mass.) in phosphate buffered saline (PBS) and incubated (37° C., 30 min). M21 cells (3.0-4.0×10^5 cells/well) were grown to confluency and washed with RPMI 1640 media/0.5% bovine serum albumin (BSA). ¹²⁴I-cRGD-PEG-nanoparticles (0-4.0 ng/ml) were added to wells and cells incubated (25° C., 4 hours), washed with RPMI 1640 media/0.5% BSA, and dissolved in 0.2 M NaOH. […] Nonspecific binding was determined in the presence of a 1000-fold excess of cRGD (Peptides International, Louisville, Ky.). Scatchard plots of the binding data were generated and analyzed using linear regression analyses (Microsoft Excel 2007) to derive receptor-binding parameters (Kd, Bmax, IC50).
To examine in vitro binding affinity and specificity of ¹²⁴I-cRGDY-PEG-dots and ¹²⁴I-PEGdots to tumor and vascular endothelial surfaces, αᵥβ₃ integrin-overexpressing (M21) and nonexpressing (M21L) melanoma and human umbilical vein endothelial (HUVECs) cell lines were used. Highly specific linear and saturable binding of the cRGDY-PEG-dots was observed over a range of particle concentrations (0 to 8 ng/ml) and incubation times (up to 5-hrs), with maximum differential binding at 4-hr and ˜2.0 ng/ml particle concentration (data not shown) using flow cytometry. […]

[7] = target: T1, αvβ3 integrin receptor (human, on M21 …); experiment: cell-based or functional assay

Sequence of melanocortin-1 receptor (MC1R) on murine B16/F1 and B16F10 melanoma cells (mouse) (Q01727 whole entry, one chain of several): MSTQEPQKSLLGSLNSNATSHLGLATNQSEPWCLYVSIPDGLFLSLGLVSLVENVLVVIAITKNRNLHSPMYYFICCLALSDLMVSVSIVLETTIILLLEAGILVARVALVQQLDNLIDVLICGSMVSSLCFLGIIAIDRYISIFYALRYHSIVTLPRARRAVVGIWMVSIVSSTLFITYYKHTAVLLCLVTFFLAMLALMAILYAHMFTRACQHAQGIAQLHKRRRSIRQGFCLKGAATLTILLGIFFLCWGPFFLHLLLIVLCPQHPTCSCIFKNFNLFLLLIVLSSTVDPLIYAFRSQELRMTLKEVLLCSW
T1 sequence (P06756 31-1048, chain 1 of 2): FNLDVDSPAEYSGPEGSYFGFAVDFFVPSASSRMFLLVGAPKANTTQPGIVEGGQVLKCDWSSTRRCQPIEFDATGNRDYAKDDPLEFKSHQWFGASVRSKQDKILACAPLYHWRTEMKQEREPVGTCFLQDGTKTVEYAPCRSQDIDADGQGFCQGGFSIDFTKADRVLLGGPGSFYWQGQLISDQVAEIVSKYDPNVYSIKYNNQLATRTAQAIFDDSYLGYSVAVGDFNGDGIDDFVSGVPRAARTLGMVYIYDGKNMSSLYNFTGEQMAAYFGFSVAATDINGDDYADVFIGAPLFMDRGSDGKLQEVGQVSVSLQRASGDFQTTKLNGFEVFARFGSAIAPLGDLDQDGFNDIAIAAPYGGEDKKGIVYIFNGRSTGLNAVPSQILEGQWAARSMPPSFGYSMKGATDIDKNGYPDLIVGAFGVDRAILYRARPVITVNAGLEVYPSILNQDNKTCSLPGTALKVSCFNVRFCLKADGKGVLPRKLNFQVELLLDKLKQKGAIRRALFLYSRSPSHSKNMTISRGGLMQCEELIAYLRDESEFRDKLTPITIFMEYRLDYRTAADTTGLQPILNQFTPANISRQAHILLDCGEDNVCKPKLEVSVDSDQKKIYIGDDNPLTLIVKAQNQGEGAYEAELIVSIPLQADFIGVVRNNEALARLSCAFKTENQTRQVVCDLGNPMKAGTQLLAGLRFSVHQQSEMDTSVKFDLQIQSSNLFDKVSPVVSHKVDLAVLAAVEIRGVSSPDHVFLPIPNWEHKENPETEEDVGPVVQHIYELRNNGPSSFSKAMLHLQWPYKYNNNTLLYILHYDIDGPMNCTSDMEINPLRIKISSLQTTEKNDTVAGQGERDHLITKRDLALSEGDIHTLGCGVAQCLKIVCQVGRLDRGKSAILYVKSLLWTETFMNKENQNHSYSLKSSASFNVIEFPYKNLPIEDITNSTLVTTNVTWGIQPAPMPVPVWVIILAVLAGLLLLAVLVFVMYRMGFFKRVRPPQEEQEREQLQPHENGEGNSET
T1 sequence (P05106 27-788, chain 2 of 2): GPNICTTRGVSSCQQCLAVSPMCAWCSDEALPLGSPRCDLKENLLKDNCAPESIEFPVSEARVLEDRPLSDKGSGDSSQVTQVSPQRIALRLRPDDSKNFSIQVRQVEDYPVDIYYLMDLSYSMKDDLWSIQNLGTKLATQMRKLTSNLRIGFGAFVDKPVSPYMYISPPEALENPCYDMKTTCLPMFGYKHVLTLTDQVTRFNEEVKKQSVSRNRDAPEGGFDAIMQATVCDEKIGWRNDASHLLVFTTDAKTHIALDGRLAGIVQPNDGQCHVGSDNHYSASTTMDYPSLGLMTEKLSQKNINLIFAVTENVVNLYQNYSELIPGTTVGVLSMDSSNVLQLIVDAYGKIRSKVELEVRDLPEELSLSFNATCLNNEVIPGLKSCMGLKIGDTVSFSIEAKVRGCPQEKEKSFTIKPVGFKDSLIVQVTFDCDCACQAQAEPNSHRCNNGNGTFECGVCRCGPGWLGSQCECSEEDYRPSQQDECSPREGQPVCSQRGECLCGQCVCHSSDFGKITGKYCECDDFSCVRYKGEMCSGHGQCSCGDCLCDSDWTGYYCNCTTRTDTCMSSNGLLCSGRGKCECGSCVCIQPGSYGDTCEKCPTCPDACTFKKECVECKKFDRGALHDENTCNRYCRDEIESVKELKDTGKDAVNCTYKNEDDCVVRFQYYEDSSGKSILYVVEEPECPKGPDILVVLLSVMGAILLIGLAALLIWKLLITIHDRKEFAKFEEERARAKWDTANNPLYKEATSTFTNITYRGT
Sequence of melanocortin-1 receptor (MC1R) on human M21 melanoma cells (human) (Q01726 whole entry): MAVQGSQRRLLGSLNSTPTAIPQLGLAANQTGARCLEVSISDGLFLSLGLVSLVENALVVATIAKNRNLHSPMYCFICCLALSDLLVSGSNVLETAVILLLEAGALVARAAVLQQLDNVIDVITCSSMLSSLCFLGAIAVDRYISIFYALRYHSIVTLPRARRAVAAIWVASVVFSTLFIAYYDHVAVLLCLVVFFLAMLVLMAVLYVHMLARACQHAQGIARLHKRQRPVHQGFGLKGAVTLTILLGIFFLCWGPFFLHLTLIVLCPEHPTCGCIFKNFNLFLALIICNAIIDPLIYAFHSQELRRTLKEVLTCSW

Molecule: DOTA-ReCCMSH (original ReCCMSH targeting molecule) (peptide)
IC50 [4]: 2.1 nM

B2: cRGDY-PEG-dots (non-radiolabeled, cRGDY peptide-bearing, PEG-coated Cy5 core-shell silica nanoparticles) (other)
peptide: cyclo(RGD[dY]C([maleimide-PEG-Cy5 silica nanoparticle]))
modifications: not fully specified; reading uncertain; also: Cys linked via maleimide to PEG on Cy5 silica nanoparticle
methylene blue uptake (absorbance) of attached M21 cells without particle pre-incubation relative to particle-exposed cells [7]: 2 fold
multivalent enhancement factor (ratio of the cRGD peptide to cRGDY-PEG-dot IC50 values), anti-adhesion assay, M21 cells on vitronectin-coated plates [7]: > 2 fold

Further lines, results first:

IC50 [1]: 0.66 nM
saturation concentration [2]: 100 nM
saturation concentration [3]: 100 nM
Molecule: alpha-MSH-PEG-Cy5-C dots (N-Ac-Cys-(Ahx)2-D-Lys-ReCCMSH peptide-bound nanoparticles)

IC50 [5]: 1.2 nM
Kd [6]: 0.51 nM
B1: ^124I-cRGDY-PEG-dots (radioiodinated, cRGDY peptide-bearing, PEG-coated Cy5 core-shell silica nanoparticles) (other)
peptide: cyclo(RGD[dY](124I)C([maleimide-PEG-Cy5 silica nanoparticle]))
modifications: not fully specified; reading uncertain; also: Cys linked via maleimide to PEG on Cy5 silica nanoparticle
